# Results taken from the RNAGym collection of RNA variant scans (doi:10.1073/pnas.2313332121).
# Variants at the floor of the assay were thinned out.
# B1: TPR 5TU (parent)
# chain: GGAUCUUCUCGAUCUAACAAAAAAGACAAAUCUGCCACAAAGCUUGAGAGCAUCUUCGGAUGCAGAGGCGGCAGCCUUCGGUGGCGCGAUAGCGCCAACGUUCUCAACUAUGACACGCAAAACGCGUGCUCCGUUGAAUGGAGUUUAUCAUG
# Variants of: B1
# Experiment: polymerase ribozyme fitness, log enrichment relative to wild type (log ratio); higher = more active; in vitro selection for triplet polymerase activity
# In short: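 One round of in vitro selection, in triplicate, was applied to PCR-built, transcribed mutant libraries of each subunit of a heterodimeric triplet polymerase ribozyme. The steps were annealing with a biotinylated primer, partner subunit and triplets, incubation frozen at −7 °C, gel excision of extended constructs, streptavidin-bead capture and RT-PCR. Fitness is the logarithm, base 2, of genotype enrichment over wild-type enrichment from inverse-variance-weighted replicate averages of Illumina-sequenced inputs and outputs, keeping genotypes with ≥10 input reads and ≥1 read per output.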
row,Variant,polymerase ribozyme fitness (log ratio)
1,C10U A30U U33G C51A A64C A91G C118U U145C,≤ -4.2
2,C10U C96G A119U,≤ -4.2
3,G11U C14G U127G,≤ -4.2
4,G11C A16U G42U A113C,≤ -4.2
5,U9G A39G U53A G83C C87A C108G U151A,≤ -4.2
6,G11C A20G A47C,-2.54
7,U9G G86U A97U C108G,≤ -4.2
8,U9G A17C A22U A29G G50A G68A,≤ -4.2
9,C10A A39U U55A C57A U90G G92A,≤ -4.2
10,C10A A52C C63U A91G A113U,≤ -4.2
11,G11U A26U U82A C93A,≤ -4.2
12,C10U C18U A39U A49U U61A G68U U82G A110U G133A,≤ -4.2
13,G11U G50C A73G,≤ -4.2
14,U9C G58A A98U,≤ -4.2
15,U9C C36A U45A A47C A49U A52G U55G G68U G80U G94U,≤ -4.2
16,G11C C38U G65U A122U,≤ -4.2
17,C10G A47C C54A U55A G58A C63U U82C C87G G100U A113C U134G,≤ -4.2
18,C10U U15G G58U A73G G83A A91C C95U U134C,≤ -4.2
19,A12C A29C G81U C87A,≤ -4.2
20,G11U G84A U144G,0.53
21,G11A U61A G67C C87G G141U,≤ -4.2

row,Variant,polymerase ribozyme fitness (log ratio)
1,G11U A29U U55G G92U C93G C95A G133A U144A A150C,≤ -4.2
2,G11A U44A G48A C57U C96U,≤ -4.2
3,C10G A21U C87G A91U C95A,≤ -4.2
4,C10G A91C C95U C103G C116G,≤ -4.2
5,G11C C93A,-3.87
6,G11U A16G C36A A49C C95G C118U G133U,≤ -4.2
7,C10G G42A C57U C85A C108U,≤ -4.2
8,U9A G94A,-3.69
9,G11U A21U A37G A52C C85U,-4.18
10,C10G C43G U55A G83A G92C C125A,≤ -4.2
11,U9C G11A A23U C36U C51A G92C G117C,≤ -4.2
12,C10G G65U G88C C105U C114A,≤ -4.2
13,G11U A28G A41U U61G G68A C96U A97C C108U G143U C149A,≤ -4.2
14,C10G A29U C95U C108A,≤ -4.2
15,U9G U53G C87U A113U C116A G140U,≤ -4.2
16,U9G C27U U55A C85G C95G C123G G140U,≤ -4.2
17,U9G U90C U148G,≤ -4.2
18,U9G C85U,-3.41
19,A12C A21C C35A G58U U135G,-4.1
20,A12C A97G U102G,-3.89
21,A12C C51U C85A A150U,-0.931

row,Variant,polymerase ribozyme fitness (log ratio)
1,C10U A52G G67U C69A,≤ -4.2
2,C10G A22G C63U G81U G94C A147G U148A,≤ -4.2
3,C10A A40C U56A C108U G143C,≤ -4.2
4,U9C A119U,≤ -4.2
5,C10G A17U C54G C93U A106C C125A,≤ -4.2
6,U9G U33G G34U G92A C105G C132U U139C,≤ -4.2
7,C10G A17U A37C C93U,-4.18
8,C10U C93U G117A A137C,≤ -4.2
9,U9C U15G A17U A21U C27G U56A G68A,≤ -4.2
10,A12C A21G A122G G140U,-4.13
11,G11U A97G C103A U146A,-4.09
12,U9C A21C C57A C93A A115C,-4
13,G11C A21G A28U C38U C87A G133C U144G A150C,≤ -4.2
14,C10U C38A G70A C93U A97U C116G U148G,≤ -4.2
15,U9G G59U G68C G84U C105A G124A G133C A142C,≤ -4.2
16,C10U C32A C38G C43A G83A A91U C95G A97U U144G,≤ -4.2
17,C10G U53A A150C,≤ -4.2
18,C10U A17G A23C A24C A26G U31G A39U U44A C54G C57G C79A C96U G124A,≤ -4.2
19,G11A C96U C116U,-1.68
20,C10U A60G,-2.5
21,G11A U55G U56A U102A,-3.42

row,Variant,polymerase ribozyme fitness (log ratio)
1,U9G A16U C32A C85G U135C G152U,≤ -4.2
2,C10A C85A,-3.53
3,G11U C85A G86U U134G A150G,≤ -4.2
4,G11C U31A A40U,-0.204
5,C10A G48C G59A C103G U104A C105U A113C U146A,≤ -4.2
6,G11U A26G C54U A142C,≤ -4.2
7,C10A A22U A39U C85U G126A,≤ -4.2
8,U9C U33C C87A A122C,≤ -4.2
9,G11A A41C G83C C123G,-2.58
10,G11A C105U,-1.12
11,C10A G48A U56G C79G C96A G143C,≤ -4.2
12,C10U A29U A47U G84U C103A C116G U145G G152U,≤ -4.2
13,C10U A16U C18U G71C C108G,≤ -4.2
14,C10G U55A C57A U77G C87G,≤ -4.2
15,G11U U31C U53A A66G C85A C87A,≤ -4.2
16,U9G A89U C95A,≤ -4.2
17,C10U A21G G48A G83C G94U U144A,≤ -4.2
18,U9A U31G C36A C93G C103G G140C,≤ -4.2
19,U9C A97G,-2.82
20,G11U A24U G50A U56A A60G C87U G126A U146G,≤ -4.2
21,C10A A24C C51U G141U,≤ -4.2
